Experimental data published in article doi:10.1101/318345v1.

What was measured:
[1] = substrate: O=C(O)C[C@H](C(=O)O)[C@@H](O)C(=O)O; test: purified protein; type: biochemical, Pseudomonas aeruginosa; details: 200 μM NADP+, 5 mM MgCl2, pH 7.5, 37 °C
[2] = substrate: NC(=O)c1ccc[n+]([C@@H]2O[C@H](COP(=O)(O)OP(=O)(O)OC[C@H]3O[C@@H](n4cnc5c(N)ncnc54)[C@H](OP(=O)(O)O)[C@@H]3O)[C@@H](O)[C@H]2O)c1; test: purified protein; type: biochemical, Pseudomonas aeruginosa; details: 200 μM isocitrate, 5 mM MgCl2, pH 7.5, 37 °C

Protein	Km [1] [µM]	kcat [1] [s⁻¹]	Km [2] [µM]	kcat [2] [s⁻¹]
IDH (Pseudomonas aeruginosa PAO1) (protein) MSIRSKITYTFTDEAPALATYSLLPIVKAFAASAGIDVETSDISLAGRILANFADRLEADQRIEDDLARLAVLATSPDANIIKLPNISASVPQLKGAIAELQGLGYKVPDFPEDPQTDEEKEVRARYAKILGSAVNPVLREGNSDRRAPAAVKAYARKHPHSMGKWSMASRSHADYMRGGDFFSSEQSITMAKAGDVRIEFVGKDGKVEVKKQLSLQEGEVLDSMFMSCGKLRDFFEKTLQDCKETGVMWSLHVKATMMKISHPIVFGHAVSVYYKDVFDKWGQLFEELGVNPNNGISSVYDKIKSLPASQQEEILHDIHEVYSHRPEMAMVDSVKGITNLHIPSDVIVDASMPAMIRNSGQMWGKDGKQKDTKAVMPESTYARIYQEMINFCKTNGAFDPTTMGSVPNVGLMAQKAEEYGSHDKTFEMTADGTMRVVLADGSVLMQHKVETGDIWRACQTKDAPIRDWVKLAVTRARQSDTPAIFWLDPERAHDRELRKKVELYLKDHDLTGLDISIMGYNEAIRVSMERLIRGKDTISVTGNVLRDYLTDLFPIMELGTSAKMLSIVPLMAGGGMYETGAGGSAPKHVQQLVEENYLRWDSLGEFLALAVSLEETGIKTGNAKAKLLGKALDEATGKLLDNNKSPSRKVGDIDNRGSHFYLAMYWAQALAAQNEDAELKAHFAPLAKALTEQEATIVAELNAVQGKPAEIGGYYRSNPELTSKVMRPSATFNAAIDSLA	17.7	183.7	–	–
ICD (Pseudomonas aeruginosa PAO1) (protein) MGYQKIQVPATGDKITVNADMSLSVPKNPIIPFIEGDGIGVDISPVMIKVVDAAVEKAYKGERKIAWMEVYAGEKATQVYDQDTWLPQETLDAVRDYVVSIKGPLTTPVGGGIRSLNVALRQQLDLYVCQRPVRWFEGVPSPVKKPGDVDMVIFRENSEDIYAGVEWKAGSPEAEKVIKFLTEEMGVKKIRFTENCGIGIKPVSQEGTKRLVRKALQYAVDNDRSSVTLVHKGNIMKFTEGAFKDWGYEVARDEFGAELLDGGPWMQFKNPKTGKNVVVKDVIADAMLQQILLRPAEYDVIATLNLNGDYLSDALAAEVGGIGIAPGANLSDSVAMFEATHGTAPKYAGQDKVNPGSLILSAEMMLRHMGWTEAADLIIKGTNGAIAAKTVTYDFERLMDGATLLSCSEFGDAMIAKM	25.6	608.8	32.3	684.9
